The RNAGym collection of RNA variant scans (doi:10.1073/pnas.2313332121)

B1: TPR t1 (parent)
chain: GACCAAUCUGCCCUCAGAGCUCGAGAACAUCUUCGGAUGCAGAGGAGGCAGGCUUCGGUGGCGCGAUAGCGCCAACGUCCUCAACCUCCAAUGCAUCCCACCACAUGAUGAUGCCUGAAGAGCCUUGGUUUUUUG

Variants of: B1
Assay: polymerase ribozyme fitness, log enrichment relative to wild type (log ratio); higher = more active; in vitro selection for triplet polymerase activity
How it was run: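 A single round of triplicate in vitro selection, including frozen incubation at −7 °C, was applied to PCR-built, transcribed mutant libraries of each subunit of a heterodimeric triplet polymerase ribozyme. Illumina sequencing of input and output libraries retained genotypes with ≥10 input reads and ≥1 read per output. Fitness is the base-2 logarithm of genotype enrichment divided by wild-type enrichment, from inverse-variance-weighted replicate averages.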

Variant | polymerase ribozyme fitness (log ratio)
G57U U81G | -0.222
G57C C62A G122A | -3.31
G60A C79A A84U | -2.32
U59C C124A | 2.03
G58U G60A U87A A103U | -5.31
G58C G63C | -2.61
G57A U78C | -1.27
G57C G63A A100U U112C U125C | -0.23
U59A C89U C124A U125A | 1.78
U59C G93A | -1.47
G60A C88U G120A G122U | 0.196
G60A A74U U92A C104U U133A | -2.03
G57U C94G U112G | -4.47
G57U C62U U67C U87G C101G G113C | -6.27
G58A C114G | -3.37
G58C U133A | 0.072
U59G G77U G117A | -1.91
G58C G93A C114U | -3.02
U59A C114A | -1.7
G57C C88U A95U | -1.98
G57C C62U G135U | -1.15

Variant | polymerase ribozyme fitness (log ratio)
G58U C104U A105U G110A C124U U133G | -7.29
G58C A84U A100C | -1.55
U59A C82G A119U | -0.921
U59C C102U C114G | -5.47
G58U G61C A90G | 0.258
G57U C72G C115A U132C G135C | -4.51
U59C A91G U133G | -2.51
G57C C70U | -0.607
G57C C97U G110U C115U | -6.98
G58C U96G C104U | -0.405
G58A C64U U78C C86U A111C U129C | -1.68
G58A C82G C88A G127U | -3.33
G60A A100U | -0.621
G57C G58A C114U | -3.53
G58U G61A | -0.176
G58U A103C A121G | -4.29
U59A C82A G93C | -0.829
G58C G71C C115A A118U | -1.75
G60A C70U C102A C115A | -3.29
U59A G63A | -1.13
G57U C72G U96A | -2.83

Variant | polymerase ribozyme fitness (log ratio)
U59A C88U A118U | 0.167
G58A U96C | -0.271
G58A U59C | -0.583
G57U C94A | -1.08
G60A A121C | 1.29
G58C G77A C97U | 0.13
G57U G63A C89G | -3.98
G57U A74G | -0.836
U59C C72U G117A | -1.45
G57U C101G U106A G122A | -0.938
G60A C79U U96A C115U C123G U132A | -1.19
U59C U106G U112G | -2.31
U59C G93C G113U U133G | -3.53
U59G G127U | -0.904
G57U G93A G110C | -5.09
U59A G63C C82A G127A | -2.72
G60A C82A A95G | 0.0608
U59C G122A C123U G128C | -0.638
U59A G93U | -0.878
U59A C123G G127A | 0.53
G57C G61A C97G | -4.41

Variant | polymerase ribozyme fitness (log ratio)
G57U A91G C114A U131A | -3.11
G57U C79U A108G | -2.71
U59A C114A U130A | -2.17
G57U C62A G117U | -5.4
G57C C62U | -0.549
U59A C89A | -1.85
U59A C104U | 0.251
G57U G61C U92C | -2.88
U59G C104A A105U G110A | -5.5
G57U U132C | 0.0378
G58C C70U A103U | -6.42
U59C U78C A83U C115A | -1.1
G57C A83G U116G | -2.83
G58A A111C A119C G120U G127U | -1.16
G60A C88G G113A | -2.28
G57U G71C | -3.42
G57A U78G C82G | -0.698
G58C C72U A119U | -0.967
G58C U78G A90C A118U G127C | -2.89
G57C C115A | 0.0474
